Test results published in article PMC5662737, “Structural and mechanistic insights into ATRX-dependent and -independent functions of the histone chaperone DAXX” (Nature Communications, 2017).

T1: human DAXX four-helix bundle domain (4HB, residues 50–144) (human, UniProt Q9UER7 50-144)
T1 construct: DAXX (death-domain-associated protein), human, N-terminal four-helix bundle, residues 50-144; Expressed and purified 'in a similar way' as the fusion protein (His6-SUMO removed with Ulp1); also called DAXX 4HB; hDAXX 4HB; source: E. coli BL21(DE3)-RIL, purified (Ni-NTA, heparin, Superdex 200); not shown: His6-SUMO, N-terminal, cleaved
T1 sequence (looked up): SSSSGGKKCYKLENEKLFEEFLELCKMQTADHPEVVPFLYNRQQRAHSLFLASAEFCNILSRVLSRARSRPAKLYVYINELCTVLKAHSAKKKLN

T2: human DAXX 4HB F87L (tumor mutation) (human, UniProt Q9UER7 50-144, F87L)
T2 construct: DAXX, human, four-helix bundle, residues 50-144, with the tumor mutation F87L; also called DAXX F87L; source: E. coli BL21(DE3)-RIL, purified (Ni-NTA, heparin, Superdex 200); not shown: His6-SUMO, N-terminal, cleaved
T2 sequence (looked up): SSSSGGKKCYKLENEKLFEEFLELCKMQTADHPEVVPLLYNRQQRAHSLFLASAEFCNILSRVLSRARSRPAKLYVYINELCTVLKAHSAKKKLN

T3: hDAXX 4HB F87A (Homo sapiens)
T3 chain: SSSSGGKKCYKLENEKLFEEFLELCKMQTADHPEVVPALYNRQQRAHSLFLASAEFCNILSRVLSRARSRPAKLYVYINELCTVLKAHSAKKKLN

T4: human DAXX four-helix bundle domain (4HB, residues 50–144) (human, UniProt Q9UER7 50-144)
T4 chain: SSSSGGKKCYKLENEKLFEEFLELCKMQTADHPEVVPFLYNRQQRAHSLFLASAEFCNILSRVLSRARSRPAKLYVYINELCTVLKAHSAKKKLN


Legend:
[1] = target: T1, human DAXX four-helix bundle domain …; experiment: ITC; 17 injections of 2.2 μl ATRX DBM peptide (1.5 mM) into 200 µl DAXX 4HB or mutants (150 µM); 20 °C; 20 mM Tris pH 7.5, 0.3 M NaCl; single site-binding model; settings: both partners purified
[2] = target: T2, human DAXX 4HB F87L (tumor mutation); experiment: as above; settings: both partners purified
[3] = target: T3, hDAXX 4HB F87A; experiment: ITC
[4] = target: T4, human DAXX four-helix bundle domain …; experiment: ITC

Row | Binder | Kd [1] | Kd [2] | Kd [3] | fold weaker binding than wild-type ATRX DBM [1] | Kd [4]
1 | NDPENRIAKKMLLEEIKANLSSDE (peptide, UniProt P46100 1265-1288, looked up, The limits 1265–1288 are printed for the DBM of the fusion construct; also called ATRX DBM; hATRX DBM; source: synthetic peptide (Tufts University Peptide Core Facility)) [human ATRX DAXX-binding motif (DBM) peptide, wild type] | 0.9 µM | 33.8 µM | 7.5 µM |  | 
2 | NDPENRIAKKMLLEEAKANLSSDE (peptide, UniProt P46100 1265-1288, looked up, ATRX, human, DBM, residues 1265-1288, with I1280A; Limits as for m4; also called ATRX I1280A mutant; source: synthetic peptide (Tufts University Peptide Core Facility)) [human ATRX DBM peptide I1280A] |  |  |  | ~14 fold | 12.9 µM
